Laboratory results as given in patent publication US20200392227A1 (LYVGEN BIOPHARMA, published 2020).
Where two headings read alike, the source gives them in different places. Values belong to the binder of their own block, whether it stands above or below them.

Experiments:
[1] = molecular target: T1, human FcγRIIC expressed on CHO cells (human, UniProt P31995 43-323); assay: FACS, CHO cells expressing FcγRIIC
T1 construct: whole, on cells
T1 sequence (looked up): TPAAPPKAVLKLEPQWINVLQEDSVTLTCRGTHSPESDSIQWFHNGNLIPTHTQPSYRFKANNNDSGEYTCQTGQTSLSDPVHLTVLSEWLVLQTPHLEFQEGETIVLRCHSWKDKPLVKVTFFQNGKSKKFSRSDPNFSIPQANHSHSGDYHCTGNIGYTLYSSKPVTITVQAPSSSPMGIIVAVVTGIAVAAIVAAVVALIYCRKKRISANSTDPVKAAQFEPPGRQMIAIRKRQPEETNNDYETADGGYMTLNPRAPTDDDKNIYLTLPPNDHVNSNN
Protocol: (§1) For FACS analysis of the IgG mutants' binding to different FcγRs, FcγR overexpressing CHO cells were harvested using trypsin-EDTA and were suspended in cold staining buffer (3% BSA in PBS). Test IgG mutants, which were diluted in staining buffer, were added into the cells. The mixture was incubated 4° C. for 2 hours, and then washed twice with cold staining buffer and re-suspended in PE-labeled anti-human IgG followed by incubation at 4° C. for 2 hours. The mixture was washed twice with staining buffer and re-suspended in 2% PFA in PBS for FACS.

[2] = molecular target: T2, human FcRIIA protein (MednaBio, E1033) (human, UniProt P12318 34-218, limits assumed); assay: BLI
T2 construct: Bought; also called FcγRIIA
T2 sequence (looked up): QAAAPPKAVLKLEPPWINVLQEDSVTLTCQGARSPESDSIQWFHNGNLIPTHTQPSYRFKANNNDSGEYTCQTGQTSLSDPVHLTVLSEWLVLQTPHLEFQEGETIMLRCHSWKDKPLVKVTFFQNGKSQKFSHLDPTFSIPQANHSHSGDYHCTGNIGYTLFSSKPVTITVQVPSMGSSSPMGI
Summary of the method: (§2)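 Binding was measured by biolayer interferometry on an Octet Red96 System. Commercial human Fc receptor proteins were loaded at 20 μg/mL onto anti-penta-HIS biosensors, which were then dipped into an 8-point 1:3 dilution series of test IgG starting at 300 nM in PBS with 0.1% BSA and 0.02% Tween-20, at pH 7.2 for Fcγ receptors and pH 6 for FcRn. Kd, kon and koff were obtained by global fitting, with data fitted to a 1:1 binding model.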

[3] = molecular target: T3, human FcRIIB/C protein (MednaBio, E1034) (human, UniProt P31994 43-217, limits assumed); assay: BLI
T3 construct: Bought as FcRIIB/C; also called FcγRIIB; CD32B
T3 sequence (looked up): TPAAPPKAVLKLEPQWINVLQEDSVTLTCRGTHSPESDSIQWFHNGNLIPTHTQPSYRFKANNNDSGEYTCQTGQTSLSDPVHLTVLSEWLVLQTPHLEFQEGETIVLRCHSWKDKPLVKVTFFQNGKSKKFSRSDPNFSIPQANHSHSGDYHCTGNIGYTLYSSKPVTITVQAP
Summary of the method: as §2

[4] = molecular target: T4, human FcRn protein (MednaBio, E1032) (human, UniProt P55899 24-297; P61769 21-119); assay: BLI
T4 construct: Bought; assays at pH 6
Summary of the method: as §2

[5] = molecular target: T5, human FcγRI expressed on CHO cells (human, UniProt P12314 16-374); assay: FACS, CHO cells expressing FcγRI
T5 construct: whole, on cells
Summary of the method: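 Trypsin-harvested CHO cells overexpressing each FcγR were incubated 2 h at 4 °C with IgG mutants in 3% BSA/PBS. Bound IgG was detected with PE-labeled anti-human IgG (2 h, 4 °C), then cells were fixed in 2% PFA and analysed by flow cytometry.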

[6] = molecular target: T2, human FcRIIA protein (MednaBio, E1033); assay: BLI; remark: listed apart in the source
Protocol: (§3) These IgG mutants were tested for binding to a panel of human Fc receptors (FcRs), including FcRn, using the Octet Red96 System (ForteBio, Model #Red96). Human FcR proteins were purchased commercially (FcRn, MednaBio, E1032; FcRI, MednaBio, E1031; FcRIIA, MednaBio, E1033; FcRIIB/C, MednaBio, E1034; FcRIIIA-F158, MednaBio, E1036; FcRIIIA-V158, MednaBio, E1035; FcRIIIB, MednaBio, E1037). All Fey receptor assays were performed at pH 7.2; all FcRn assays were performed at pH 6. The Fey receptors were loaded onto anti-penta-HIS1K (ForteBio, Cat #18-5122) biosensors at a concentration of 20 μg/mL. The loaded biosensors was then be dipped into an 8-point 1:3 dilution series of the test IgG molecules (including controls and the mutants described herein) in PBS with 0.1% BSA, 0.02% Tween-20 (pH 7.2) at a starting concentration of 300 nM. Kinetic analysis was performed using a 1:1 binding model and global fitting.

[7] = molecular target: T3, human FcRIIB/C protein (MednaBio, E1034); assay: BLI; remark: listed apart in the source
Protocol: as §3

[8] = molecular target: T6, human FcRI protein (MednaBio, E1031) (human, UniProt P12314 16-288, limits assumed); assay: BLI
T6 construct: Bought; loaded on anti-penta-HIS biosensors; also called FcγRI
Protocol: as §3

[9] = molecular target: T7, human FcRIIIB protein (MednaBio, E1037) (human, UniProt O75015 17-200); assay: BLI
T7 construct: Bought; also called FcγRIIIB; FcgRIIIB
Protocol: as §3

[10] = molecular target: T8, human FcRIIIA-F158 protein (MednaBio, E1036) (human, UniProt P08637 17-208); assay: BLI
T8 construct: Bought; also called FcγRIIIA(F)
Protocol: as §3

[11] = molecular target: T9, human FcRIIIA-V158 protein (MednaBio, E1035) (human, UniProt P08637 17-208); assay: BLI
T9 construct: Bought; also called FcγRIIIA(V); FcgRIIIA(V)
Protocol: as §3

[12] = molecular target: T4, human FcRn protein (MednaBio, E1032); assay: BLI; remark: listed apart in the source
Protocol: as §3

[13] = molecular target: T1, human FcγRIIC expressed on CHO cells; assay: FACS, CHO cells expressing FcγRIIC; remark: listed apart in the source
[14] = molecular target: T10, human FcγRIIA(H131) expressed on CHO cells (human, UniProt P12318 34-317); assay: FACS, CHO cells expressing FcγRIIA(H131)
T10 construct: whole, on cells
T10 sequence (looked up): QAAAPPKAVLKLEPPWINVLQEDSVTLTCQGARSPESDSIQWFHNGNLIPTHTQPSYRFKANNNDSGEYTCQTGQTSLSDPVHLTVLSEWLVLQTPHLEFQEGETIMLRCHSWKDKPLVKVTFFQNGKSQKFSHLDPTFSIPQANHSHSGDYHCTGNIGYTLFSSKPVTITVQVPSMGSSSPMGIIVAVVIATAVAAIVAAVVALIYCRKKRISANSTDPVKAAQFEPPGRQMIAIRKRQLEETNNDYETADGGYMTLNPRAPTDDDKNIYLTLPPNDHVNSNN
Protocol: as §1

T6 sequence (P12314 16-288 limits assumed): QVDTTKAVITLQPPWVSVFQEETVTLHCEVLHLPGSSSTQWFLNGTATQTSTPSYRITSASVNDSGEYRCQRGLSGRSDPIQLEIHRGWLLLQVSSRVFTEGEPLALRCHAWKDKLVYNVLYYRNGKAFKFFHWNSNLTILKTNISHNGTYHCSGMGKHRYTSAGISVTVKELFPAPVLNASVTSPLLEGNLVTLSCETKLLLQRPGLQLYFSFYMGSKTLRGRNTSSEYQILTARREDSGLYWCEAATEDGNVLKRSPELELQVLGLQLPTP
T7 sequence (O75015 17-200 limits assumed): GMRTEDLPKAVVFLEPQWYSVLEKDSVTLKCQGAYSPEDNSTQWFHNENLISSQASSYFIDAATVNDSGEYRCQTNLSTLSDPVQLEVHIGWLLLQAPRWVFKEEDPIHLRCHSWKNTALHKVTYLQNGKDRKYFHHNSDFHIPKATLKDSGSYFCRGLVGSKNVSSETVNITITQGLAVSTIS
T9 sequence (P08637 17-208 F176V): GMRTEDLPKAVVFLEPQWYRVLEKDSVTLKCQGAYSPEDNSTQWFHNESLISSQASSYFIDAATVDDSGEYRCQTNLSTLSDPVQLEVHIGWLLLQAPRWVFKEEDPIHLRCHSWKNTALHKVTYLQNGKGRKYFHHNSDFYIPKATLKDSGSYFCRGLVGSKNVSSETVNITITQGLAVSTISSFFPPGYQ
T8 sequence (P08637 17-208 limits assumed): as the sequence (P08637 17-208 F176V) above, with V160F counted along it
T5 sequence (P12314 16-374): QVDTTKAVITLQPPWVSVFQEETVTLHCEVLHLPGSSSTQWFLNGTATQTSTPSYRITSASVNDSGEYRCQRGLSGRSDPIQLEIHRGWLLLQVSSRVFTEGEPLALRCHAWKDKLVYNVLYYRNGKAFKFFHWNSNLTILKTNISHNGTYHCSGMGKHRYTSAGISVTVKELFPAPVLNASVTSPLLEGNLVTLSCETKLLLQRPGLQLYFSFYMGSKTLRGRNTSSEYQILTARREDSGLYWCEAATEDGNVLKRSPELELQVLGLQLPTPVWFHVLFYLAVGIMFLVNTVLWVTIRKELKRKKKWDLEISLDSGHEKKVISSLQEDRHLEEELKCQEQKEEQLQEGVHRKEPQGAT

- binding result [1]: binds
- Kd [2]: 600 nM
- koff [2]: 0.024 s⁻¹
- kon [2]: 40000 M⁻¹ s⁻¹
- Kd [3]: 280 nM
- koff [3]: 0.019 s⁻¹
- kon [3]: 68000 M⁻¹ s⁻¹
- Kd [4]: 52 nM
- koff [4]: 0.011 s⁻¹
- kon [4]: 210000 M⁻¹ s⁻¹
- binding result [5]: binds
B1: anti-CD137 IgG4 with Fc variant G4m17 (antibody)
heavy: EVQLVQSGAEVKKPGESLRISCKGSGYSFSTYWISWVRQMPGKGLEWMGKIYPGDSYTNYSPSFQGQVTISADKSISTAYLQWSSLKASDTAMYYCARGYGIFDYWGQGTLVTVSSASTKGPSVFPLAPCSRSTSESTAALGCLVKDYFPEPVTVSWNSGALTSGVHTFPAVLQSSGLYSLSSVVTVPSSSLGTKTYTCNVDHKPSNTKVDKRVESKYGPPCPPCPAPEFLSVFLFPPKPKDTLMISRTPEVTCVVVDVEQEDPEVQFNWYVDGVEVHNAKTKPREEQFNSTYRVVSVLTVLHQDWLNGKEYKCKVSNKGLPSSIEKTISKAKGQPREPQVYTLPPSQEEMTKNQVSLTCLVKGFYPSDIAVEWESNGQPENNYKTTPPVLDSDGSFFLYSRLTVDKSRWQEGNVFSCSVMHEALHNHYTQKSLSLSLGK
light: SYELTQPPSVSVSPGQTASITCSGDNIGDQYAHWYQQKPGQSPVLVIYQDKNRPSGIPERFSGSNSGNTATLTISGTQAMDEADYYCATYTGFGSLAVFGGGTKLTVLGQPKAAPSVTLFPPSSEELQANKATLVCLISDFYPGAVTVAWKADSSPVKAGVETTTPSKQSNNKYAASSYLSLTPEQWKSHRSYSCQVTHEGSTVEKTVAPTECS
notes: copies: 2 + 2

- binding result [6]: no binding (tested: 300 nM)
- binding result [7]: no binding (tested: 300 nM)
- binding result [8]: no binding (tested: 300 nM)
- binding result [9]: no binding (tested: 300 nM)
- binding result [10]: no binding (tested: 300 nM)
- binding result [11]: no binding (tested: 300 nM)
- Kd [12]: 19 nM
- koff [12]: 0.0098 s⁻¹
- kon [12]: 510000 M⁻¹ s⁻¹
- binding result [13]: no binding (tested: 10 ug/ml)
- binding result [14]: no binding (tested: 10 ug/ml)
B2: anti-CD137 IgG4 with Fc variant G4m20 (antibody)
heavy: EVQLVQSGAEVKKPGESLRISCKGSGYSFSTYWISWVRQMPGKGLEWMGKIYPGDSYTNYSPSFQGQVTISADKSISTAYLQWSSLKASDTAMYYCARGYGIFDYWGQGTLVTVSSASTKGPSVFPLAPCSRSTSESTAALGCLVKDYFPEPVTVSWNSGALTSGVHTFPAVLQSSGLYSLSSVVTVPSSSLGTKTYTCNVDHKPSNTKVDKRVESKYGPPCPPCPAPEFLGSVFLFPPKPKDTLMISRTPEVTCVVVDVSQEDPEVQFNWYVDGVEVHNAKTKPREEQFNSTYRVVSVLTVLHQDWLNGKEYKCKVSNKGLPSSIEKTISKAKGQPREPQVYTLPPSQEEMTKNQVSLTCLVKGFYPSDIAVEWESNGQPENNYKTTPPVLDSDGSFFLYSRLTVDKSRWQEGNVFSCSVMHEALHNHYTQKSLSLSLGK
light: SYELTQPPSVSVSPGQTASITCSGDNIGDQYAHWYQQKPGQSPVLVIYQDKNRPSGIPERFSGSNSGNTATLTISGTQAMDEADYYCATYTGFGSLAVFGGGTKLTVLGQPKAAPSVTLFPPSSEELQANKATLVCLISDFYPGAVTVAWKADSSPVKAGVETTTPSKQSNNKYAASSYLSLTPEQWKSHRSYSCQVTHEGSTVEKTVAPTECS
notes: copies: 2 + 2
